In IntAct's records for PubMed 25517094:

B1: Muscarinic acetylcholine receptor M4 (Homo sapiens), P08173 (parent)
chain: MANFTPVNGSSGNQSVRLVTSSSHNRYETVEMVFIATVTGSLSLVTVVGNILVMLSIKVNRQLQTVNNYFLFSLACADLIIGAFSMNLYTVYIIKGYWPLGAVVCDLWLALDYVVSNASVMNLLIISFDRYFCVTKPLTYPARRTTKMAGLMIAAAWVLSFVLWAPAILFWQFVVGKRTVPDNQCFIQFLSNPAVTFGTAIAAFYLPVVIMTVLYIHISLASRSRVHKHRPEGPKEKKAKTLAFLKSPLMKQSVKKPPPGEAAREELRNGKLEEAPPPALPPPPRPVADKDTSNESSSGSATQNTKERPATELSTTEATTPAMPAPPLQPRALNPASRWSKIQIVTKQTGNECVTAIEIVPATPAGMRPAANVARKFASIARNQVRKKRQMAARERKVTRTIFAILLAFILTWTPYNVMVLVNTFCQSCIPDTVWSIGYWLCYVNSTINPACYALCNATFKKTFRHLLLCQYRNIGTAR
B2: "D(3) dopamine receptor" (Homo sapiens), P35462-1 (parent)
chain: MASLSQLSGHLNYTCGAENSTGASQARPHAYYALSYCALILAIVFGNGLVCMAVLKERALQTTTNYLVVSLAVADLLVATLVMPWVVYLEVTGGVWNFSRICCDVFVTLDVMMCTASILNLCAISIDRYTAVVMPVHYQHGTGQSSCRRVALMITAVWVLAFAVSCPLLFGFNTTGDPTVCSISNPDFVIYSSVVSFYLPFGVTVLVYARIYVVLKQRRRKRILTRQNSQCNSVRPGFPQQTLSPDPAHLELKRYYSICQDTALGGPGFQERGGELKREEKTRNSLSPTIAPKLSLEVRKLSNGRLSTSLKLGPLQPRGVPLREKKATQMVAIVLGAFIVCWLPFFLTHVLNTHCQTCHVSPELYSATTWLGYVNSALNPVIYTTFNIEFRKAFLKILSC
B3: "D(4) dopamine receptor" (Mus musculus), P51436 (parent)
chain: MGNSSATEDGGLLAGRGPESLGTGAGLGGAGAAALVGGVLLIGLVLAGNSLVCVSVASERTLQTPTNYFIVSLAAADLLLAVLVLPLFVYSEVQGGVWLLSPRLCDTLMAMDVMLCTASIFNLCAISVDRFVAVTVPLRYNQQGQCQLLLIAATWLLSAAVASPVVCGLNDVPGRDPAVCCLENRDYVVYSSVCSFFLPCPLMLLLYWATFRGLRRWEAARHTKLHSRAPRRPSGPGPPVSDPTQGPFFPDCPPPLPSLRTSPSDSSRPESELSQRPCSPGCLLADAALPQPPEPSSRRRRGAKITGRERKAMRVLPVVVGAFLVCWTPFFVVHITRALCPACFVSPRLVSAVTWLGYVNSALNPIIYTIFNAEFRSVFRKTLRLRC

Variants of: B1
Details: with SH3GL1, Q99961-1
Target sequence in this assay (Q99961 whole entry): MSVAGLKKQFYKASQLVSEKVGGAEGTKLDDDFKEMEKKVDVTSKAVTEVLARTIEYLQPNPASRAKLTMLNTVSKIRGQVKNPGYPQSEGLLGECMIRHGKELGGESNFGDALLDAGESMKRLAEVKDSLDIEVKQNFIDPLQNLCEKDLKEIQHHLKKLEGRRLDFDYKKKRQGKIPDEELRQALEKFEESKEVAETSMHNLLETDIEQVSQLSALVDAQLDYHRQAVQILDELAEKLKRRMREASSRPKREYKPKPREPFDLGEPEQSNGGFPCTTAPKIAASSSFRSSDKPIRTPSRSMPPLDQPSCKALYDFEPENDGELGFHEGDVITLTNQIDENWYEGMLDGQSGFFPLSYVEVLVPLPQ

| Variant | effect of a mutation on the interaction |
| --- | --- |
| R230E | decreasing interaction strength |
| K255E;K256E | decreasing interaction strength |
| P330E | decreasing interaction strength |

Variants of: B2
Details: with SH3GL1, Q99961-1
Target sequence in this assay (Q99961 whole entry): as above

| Variant | effect of a mutation on the interaction |
| --- | --- |
| K293E | decreasing interaction strength |
| R318E | decreasing interaction strength |

Variants of: B3
Details: with SH3GL1, Q99961-1
Target sequence in this assay (Q99961 whole entry): as above

| Variant | effect of a mutation on the interaction |
| --- | --- |
| P230A;P233A | decreasing interaction strength |
| R231D;R232E | disrupting interaction strength |
